Values quoted from earlier work in publication PMC4659487.
pKd: −log10 of the molar value.

Target: MurC (Escherichia coli) (UniProt P17952)

Substance: MurC (from UniProt P17952)
- pKd: 6.00
